Test results reported in paper PMC7019173, “Stapled peptide targeting the CDK4/Cyclin D interface combined with Abemaciclib inhibits KRAS mutant lung cancer growth” (Theranostics, 2020).
Like-named read-outs stand apart in the source and are kept apart here. Each block holds one molecule with its values, some of them ahead of it. Where a SMILES comes first, the peptide text is derived from it. Bridges are numbered along the chain shown (N, C = ends). [ ]: non-standard residue; d: D form. S5 = C=CCCC[C@](C)(N)C(=O)O; TP2‑Rho = not defined here

Legend:
circular dichroism = conditions: 50 mM phosphate buffer; pH 7; 20 °C; 100 uM
[1] = target: C4D peptide derived from the alpha 5 helix of cyclin D1 (Homo sapiens, UniProt P24385); assay: Fluorescence titration of TP2-Rho-labelled C4D peptide with CDK4 C helix-derived peptides; format: binding; conditions: 200 nM TP2-Rho labelled C4D peptide, PBS, 30 °C, average of n = 3 to 5 ± SD
Protocol: TP2-Rho-labelled peptides: peptides were labelled on a unique cysteine residue with a five-fold molar excess of TP2-Rho-maleimide overnight, and then purified from free dye on NAP-5 columns (GE Healthcare), as described previously.
(§1) Fluorescence titration assays were performed in 96-well plates in a thermostated chamber (Clariostar spectrofluorimeter, BMG) at 30 °C in 200 μL phosphate buffer saline using 200 nM fluorescently-labelled peptides or proteins. The fluorescence emission intensity of TP2-Rho-labelled peptides was recorded at 614 nm following excitation at 510 nm. The fluorescence emission intensity of mant-ATP was measured at […]. Data analysis was performed using the GraFit Software (Erathicus Ltd) and curve fitting was performed using a quadratic equation, as described previously. Experiments were performed in triplicate, and Kd values represent the average calculated for n = 3 to 5 experiments, together with standard deviation.

CDK4/cyclin D1 = target: T1, CDK4/cyclin D1 (Homo sapiens, UniProt P11802); assay: Fluorescence titration of mant-ATP with CDK4/cyclin D1 with or without P2short; format: binding; conditions: 200 nM mant-ATP
T1 construct: GST (N); made in house; host or cells: E. coli
T1 sequence (P11802 whole entry): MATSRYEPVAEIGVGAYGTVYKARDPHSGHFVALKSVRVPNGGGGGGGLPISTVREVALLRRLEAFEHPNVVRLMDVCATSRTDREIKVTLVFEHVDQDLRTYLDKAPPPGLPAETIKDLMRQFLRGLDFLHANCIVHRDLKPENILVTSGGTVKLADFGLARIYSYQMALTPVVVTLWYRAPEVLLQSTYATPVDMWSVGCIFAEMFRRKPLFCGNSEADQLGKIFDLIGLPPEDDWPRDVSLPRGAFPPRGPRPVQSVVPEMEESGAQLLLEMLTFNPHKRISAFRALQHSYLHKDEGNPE
T1 sequence (P24385 whole entry partner): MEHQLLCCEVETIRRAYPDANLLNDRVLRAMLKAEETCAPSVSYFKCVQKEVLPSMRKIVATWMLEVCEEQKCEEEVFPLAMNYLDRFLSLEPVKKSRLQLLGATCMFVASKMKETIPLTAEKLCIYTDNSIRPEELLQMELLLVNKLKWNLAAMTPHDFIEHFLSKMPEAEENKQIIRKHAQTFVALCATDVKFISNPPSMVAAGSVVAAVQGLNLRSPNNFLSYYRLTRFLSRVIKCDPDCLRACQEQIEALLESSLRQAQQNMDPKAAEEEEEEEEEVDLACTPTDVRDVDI
Protocol: Recombinant GST-CDK4 and GST-cyclin D1 were expressed in E. coli by IPTG induction and purified by FPLC chromatography as described previously.
as §1

[2] = target: TP2-Rho-labelled CDK4 C helix peptide (unstapled) (human); assay: other fluorescence titration; 200 nM TP2-Rho-labelled peptide titrated with GST-cyclins or GST; 96-well plates, 30 °C, 200 μL phosphate buffer saline; quadratic fit; average Kd of n = 3 to 5 experiments
[3] = Circular dichroism, determination of alpha helical content; format: physicochemical
Protocol: CD experiments were carried out using a Jasco J815 spectropolarimeter. Spectra were recorded with 100 μM of peptides dissolved in phosphate buffer 50 mM, pH 7, using a 1 mm pathlength CD cuvette at 20 °C, over a wavelength range of 190-260 nm. Continuous scanning mode was used, with a response of 1.0 s with 0.1 nm steps and a bandwidth of 2 nm. The signal to noise ratio was improved by acquiring each spectrum over an average of two scans. Baseline was corrected by subtracting the background from the sample spectrum.
Alpha helical content was determined using the following equation: % Helix = ([θ])obs * 100)/(-39500 * (1-2.57/n), where ([θ])obs is the mean residue ellipticity at 222 nm and n the number of peptide bonds.

A549 cells = assay: cells; format: cell-based, human; conditions: 48 hours, crystal violet, at least two independent experiments (n=4/experiment) ± SD, Grafit; read-out: IC50 A549 cell proliferation
Protocol: Non-small cell lung cancer A549, H358 and PC9 cell lines used in this study. Cell culture media, serum and antibiotics were purchased from Life Technologies. All cell lines were cultured in RPMI + Glutamax supplemented with 10% FCS, 100 units/mL penicillin (G sodium salt) and 100 µg/mL streptomycin at 37 °C in an atmosphere containing 5% CO2. […] Stock solutions of drugs were prepared in DMSO and freshly diluted in PBS to the desired concentration prior to use, then added onto unsynchronized cells cultured to subconfluency (60-70%), which were then further incubated for 24, 48 or 72 h. Cell proliferation was determined by crystal violet assay following treatment with drugs. Cells were washed with PBS, fixed with 3.7% formaldehyde for 10 min and then incubated with 0.1% crystal violet dye for 30 min. After rinsing, crystals were dissolved in 10% acetic acid and viability was determined by measuring absorbance at 595 nm.

[4] = parameters: species or system mice; conditions: mouse, in vivo, iv
[5] = parameters: species or system mice; conditions: mouse, in vivo
Protocol: Five weeks after the inoculation of H358-Luc cells, when bioluminescent orthotopic tumours were detected, nude mice were randomly divided into 6 groups. Mice were treated with vehicle (control, n = 14), Abemaciclib (n = 10), or P2-short administered intravenously (n = 10) or intrapulmonary (n = 10), or treated with a combination of Abemaciclib and P2-short (intravenous administration of P2-short, n = 10; intrapulmonary administration of P2-short, n = 10). Mice were daily orally treated for three weeks with 10 mg/kg Abemaciclib. P2-short was either administered via the tail vein three times a week for three weeks under anesthesia (isoflurane/air 4% for induction and 1.5% thereafter) with 200 μL at 0.9 mg/kg, or administered intrapulmonary two times a week for three weeks under anesthesia with 50 μL at 0.45 mg/kg. Intrapulmonary administration of P2-short was performed using a catheter connected to a FMJ-250-high-pressure syringe (Penn-Centur, Inc) and introduced into the trachea of the animals using a dedicated laryngoscope. Mice were observed and weighed three times a week. Tumour growth was followed by in vivo bioluminescence imaging (IVIS Kinetic). After 3 weeks, mice were sacrificed, and blood samples were collected by cardiac puncture for biochemistry analysis ([…]). Lungs were collected for immunohistochemistry analyses. […]

GST-cyclin A = GST-cyclin A (UniProt P20248 1-432); assay: other fluorescence titration; 200 nM TP2-Rho-labelled peptide titrated with GST-cyclins or GST; 96-well plates, 30 °C, 200 μL phosphate buffer saline; quadratic fit; average Kd of n = 3 to 5 experiments; conditions: both partners purified
GST-cyclin E = GST-cyclin E (UniProt P24864 1-410); assay: as above; conditions: both partners purified
GST-cyclin Y = target: T2, GST-cyclin Y (UniProt Q8ND76 1-341); assay: as above; conditions: both partners purified
T2 construct: cyclin Y; source: E. coli BL21, purified (GSTrap HP, desalting column)
T2 sequence (Q8ND76 whole entry): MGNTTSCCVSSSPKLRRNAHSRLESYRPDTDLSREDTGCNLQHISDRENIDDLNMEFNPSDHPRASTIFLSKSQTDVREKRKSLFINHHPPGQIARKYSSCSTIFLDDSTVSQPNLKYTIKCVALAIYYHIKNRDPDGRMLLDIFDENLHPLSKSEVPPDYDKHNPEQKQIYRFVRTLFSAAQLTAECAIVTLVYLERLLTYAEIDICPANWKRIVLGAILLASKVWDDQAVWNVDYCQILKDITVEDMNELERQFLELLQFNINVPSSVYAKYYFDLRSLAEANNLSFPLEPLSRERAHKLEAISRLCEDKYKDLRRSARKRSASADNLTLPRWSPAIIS

GST-cyclin D1 = target: T3, GST-cyclin D1 (UniProt P24385 1-295); assay: as above; conditions: both partners purified
T3 construct: cyclin D1; also called recombinant cyclin; source: E. coli, IPTG induction, purified by FPLC chromatography
T3 sequence (P24385 whole entry): as the sequence (P24385 whole entry partner) above

Chain of GST-cyclin D1 (from UniProt P24385 1-295) (natural protein) (P24385 whole entry): as the sequence (P24385 whole entry partner) above

Molecule: CC[C@H](C)[C@H](NC(=O)[C@@H]1CCCN1C(=O)[C@H](CC(C)C)NC(=O)CNC(C)=O)C(=O)N[C@@]1(C)CCCC=CCCC[C@@](C)(C(=O)N[C@H](C(=O)N[C@@H](C)C(=O)N[C@@H](CC(C)C)C(=O)N[C@@]2(C)CCCC=CCCC[C@@](C)(C(=O)N[C@@H](C)C(=O)N[C@@H](Cc3ccccc3)C(=O)N[C@@H](CCC(=O)O)C(N)=O)NC(=O)[C@H](CC(C)C)NC(=O)[C@H](CCCNC(=N)N)NC(=O)[C@H](CCCNC(=N)N)NC2=O)C(C)C)NC(=O)[C@H](CCCNC(=N)N)NC(=O)[C@H](C(C)C)NC(=O)[C@H]([C@@H](C)O)NC1=O [P4] (Ac-GLPI[S5]TVR[S5]VAL[S5]RRL[S5]AFE-NH2; staple 5-9, 13-17)
- helicity (circular dichroism): 26%
- Kd [1]: 109 ± 29 nM

Molecule: CC(=O)N[C@@H](CS)C(=O)N[C@@H](C)C(=O)N1CCC[C@H]1C(=O)N[C@@H](C)C(=O)N[C@@H](CO)C(=O)N[C@H](C(=O)N[C@@H](C)C(=O)N[C@@H](C)C(=O)N[C@@]1(C)CCCC=CCCC[C@@](C)(C(=O)N[C@@H](C)C(=O)N[C@@H](CCCNC(=N)N)C(=O)N[C@@H](CC(C)C)C(N)=O)NC(=O)[C@H](CC(C)C)NC(=O)[C@H](C)NC(=O)[C@H](CCCCN)NC1=O)[C@@H](C)O (Ac-CAPASTAA[S5]KAL[S5]ARL-NH2; staple 9-13)
- helicity (circular dichroism): 34%

- Kd (CDK4/cyclin D1; P2short 2-fold excess, read-out: Kd of mant-ATP for CDK4/cyclin D1 in the presence of P2short): 5 ± 2 nM
- Kd (CDK4/cyclin D1; no peptide, read-out: Kd of mant-ATP for CDK4/cyclin D1 complex alone): 27 ± 13 nM
Molecule: mant-ATP

- Kd [2]: 43 nM
Molecule: GST-cyclin D1 (from UniProt P24385 1-295) (natural protein)

Molecule: CC[C@H](C)[C@H](NC(=O)[C@@H]1CCCN1C(=O)[C@H](CC(C)C)NC(=O)[C@H](CS)NC(C)=O)C(=O)N[C@@H](CO)C(=O)N[C@H](C(=O)N[C@H](C(=O)N[C@@H](CCCNC(=N)N)C(=O)N[C@@]1(C)CCCC=CCCC[C@@](C)(C(=O)N[C@@H](CCCNC(=N)N)C(=O)N[C@@H](CCCNC(=N)N)C(=O)N[C@@H](CC(C)C)C(N)=O)NC(=O)[C@H](CC(C)C)NC(=O)[C@H](C)NC(=O)[C@H](C(C)C)NC1=O)C(C)C)[C@@H](C)O [P2short] (Ac-CLPISTVR[S5]VAL[S5]RRL-NH2; staple 9-13)
- helicity (circular dichroism): 77%
- Kd [1]: 56 ± 19 nM

- Kd [1]: 140 ± 77 nM
Molecule: CC[C@H](C)[C@H](NC(=O)[C@@H]1CCCN1C(=O)[C@H](CC(C)C)NC(=O)CNC(C)=O)C(=O)N[C@@]1(C)CCCC=CCCC[C@@](C)(C(=O)N[C@H](C(=O)N[C@@H](C)C(=O)N[C@@H](CC(C)C)C(=O)N[C@@H](CC(C)C)C(=O)N[C@@H](CCCNC(=N)N)C(=O)N[C@@H](CCCNC(=N)N)C(=O)N[C@@H](CC(C)C)C(=O)N[C@@H](CCC(=O)O)C(=O)N[C@@H](C)C(=O)N[C@@H](Cc2ccccc2)C(=O)N[C@@H](CCC(=O)O)C(N)=O)C(C)C)NC(=O)[C@H](CCCNC(=N)N)NC(=O)[C@H](C(C)C)NC(=O)[C@H]([C@@H](C)O)NC1=O [P1] (Ac-GLPI[S5]TVR[S5]VALLRRLEAFE-NH2; staple 5-9)
- helicity (circular dichroism): 16%

Molecule: CC[C@H](C)[C@H](NC(=O)[C@@H]1CCCN1C(=O)[C@H](CC(C)C)NC(C)=O)C(=O)N[C@@H](CO)C(=O)N[C@H](C(=O)N[C@H](C(=O)N[C@@H](CCCNC(=N)N)C(=O)N[C@@H](CCC(=O)O)C(=O)N[C@H](C(=O)N[C@@H](C)C(=O)N[C@@H](CC(C)C)C(=O)N[C@@H](CC(C)C)C(=O)N[C@@H](CCCNC(=N)N)C(=O)N[C@@H](CCCNC(=N)N)C(=O)N[C@@H](CC(C)C)C(N)=O)C(C)C)C(C)C)[C@@H](C)O [CDK4 C peptide short] (Ac-LPISTVREVALLRRL-NH2)
- helicity (circular dichroism): 14%
- % helix (alpha helical content) ([3]; CD, 100 μM peptide in phosphate buffer 50 mM, pH 7, 20 °C, from mean residue ellipticity at 222 nm): 14%
- conformation in solution (CD) ([3]; phosphate buffer): disordered in solution

Molecule: CC[C@H](C)[C@H](NC(=O)[C@@H]1CCCN1C(=O)[C@H](CC(C)C)NC(=O)[C@H](C)N)C(=O)N[C@@H](CO)C(=O)N[C@H](C(=O)N[C@H](C(=O)N[C@@H](CCCNC(=N)N)C(=O)N[C@@]1(C)CCCC=CCCC[C@@](C)(C(=O)N[C@@H](CCCNC(=N)N)C(=O)N[C@@H](CCCNC(=N)N)C(=O)N[C@@H](CC(C)C)C(N)=O)NC(=O)[C@H](CC(C)C)NC(=O)[C@H](C)NC(=O)[C@H](C(C)C)NC1=O)C(C)C)[C@@H](C)O [P2shortA] (H-ALPISTVR[S5]VAL[S5]RRL-NH2; staple 9-13)
- helicity (circular dichroism): 74%
- IC50 (A549 cells): 10800 ± 260 nM
- blood distribution half-life [4]: 0.4 h
- blood elimination half-life [4]: 39 h
- lung damage by HE staining [5]: did not reveal any lung damage

- Kd [1]: 245 ± 84 nM
Molecule: CC[C@H](C)[C@H](NC(=O)[C@@H]1CCCN1C(=O)[C@H](CC(C)C)NC(=O)CNC(C)=O)C(=O)N[C@@H](CO)C(=O)N[C@H](C(=O)N[C@H](C(=O)N[C@@H](CCCNC(=N)N)C(=O)N[C@@]1(C)CCCC=CCCC[C@@](C)(C(=O)N[C@@H](CCCNC(=N)N)C(=O)N[C@@H](CCCNC(=N)N)C(=O)N[C@@H](CC(C)C)C(=O)N[C@@H](CCC(=O)O)C(=O)N[C@@H](C)C(=O)N[C@@H](Cc2ccccc2)C(=O)N[C@@H](CCC(=O)O)C(N)=O)NC(=O)[C@H](CC(C)C)NC(=O)[C@H](C)NC(=O)[C@H](C(C)C)NC1=O)C(C)C)[C@@H](C)O [P2] (Ac-GLPISTVR[S5]VAL[S5]RRLEAFE-NH2; staple 9-13)
- helicity (circular dichroism): 55%

- Kd (GST-cyclin A): 25 nM
- Kd (GST-cyclin E): 10 nM
- Kd (GST-cyclin Y): 47 nM
- Kd (GST-cyclin D1): 12 nM
Molecule: Ac-C(TP2‑Rho)GLPISTVR[S5]VAL[S5]RRL-NH2 (staple 10-14; reading uncertain) [TP2-Rho-labelled P2short stapled peptide]
